From article doi:10.1101/2022.04.28.489915 (bioRxiv, 2022)

Biological target: T1, TolC (E. coli, UniProt P02930 23-493)
T1 sequence: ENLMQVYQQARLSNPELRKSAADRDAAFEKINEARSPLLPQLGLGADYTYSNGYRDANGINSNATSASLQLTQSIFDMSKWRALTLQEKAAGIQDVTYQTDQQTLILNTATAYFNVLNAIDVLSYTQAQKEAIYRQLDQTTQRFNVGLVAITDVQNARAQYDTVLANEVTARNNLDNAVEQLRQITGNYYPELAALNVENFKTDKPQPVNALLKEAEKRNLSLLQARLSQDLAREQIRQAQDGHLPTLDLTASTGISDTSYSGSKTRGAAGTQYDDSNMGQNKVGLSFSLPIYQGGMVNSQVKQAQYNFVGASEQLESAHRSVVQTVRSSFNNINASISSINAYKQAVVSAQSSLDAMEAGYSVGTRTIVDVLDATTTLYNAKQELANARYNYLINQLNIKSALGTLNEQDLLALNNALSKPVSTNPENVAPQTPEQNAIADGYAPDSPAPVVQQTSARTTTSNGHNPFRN
Assay: SEC

binding result: binds
B1: residues 1-190 of colicin E1 (colE1-T) (domain or fragment)
chain: METAVAYYKDGVPYDDKGQVIITLLNGTPDGSGSGGGGGKGGSKSESSAAIHATAKWSTAQLKKTQAEQAARAKAAAEAQAKAKANRDALTQRLKDIVNEALRHNASRTPSATELAHANNAAMQAEDERLRLAKAEEKARKEAEAAEKAFQEAEQRRKEIEREKAETERQLKLAEAEEKRLAALSEEAKA
